Patent publication US20150344570A1 (published 2015)

T1: FcgRIIb (FcγRIIb) extracellular domain with C-terminal His tag (human, UniProt P31994 43-217)
T1 construct: extracellular domain; not shown: His tag attached to the C terminus
T1 sequence (looked up): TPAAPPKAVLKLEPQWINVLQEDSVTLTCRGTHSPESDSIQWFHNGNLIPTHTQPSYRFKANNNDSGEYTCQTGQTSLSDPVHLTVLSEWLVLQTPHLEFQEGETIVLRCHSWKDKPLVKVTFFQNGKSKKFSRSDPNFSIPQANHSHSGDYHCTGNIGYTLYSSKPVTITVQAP


Assays:
Test in all cases: SPR (Biacore); KD of H240-Kn061/H240-Hl071/L73-k0 divided by KD of the variant
[1] = target: T1, FcgRIIb (FcγRIIb) extracellular domain …
Experimental: (§1) The antibodies were assessed for the binding to each FcgR. […] The resultant value was defined as relative KD, and used as an assessment indicator.
(§2) Analysis of interaction between objective antibody and the FcγR was carried out using Biacore T100 (GE Healthcare), Biacore T200, Biacore A100, and Biacore 4000. HBS-EP+ (GE Healthcare) was used as the running buffer, and the measurement temperature was set to 25° C. Chips produced by immobilizing the antigen peptide by the amine coupling method to a Series S sensor Chip CM5 (GE Healthcare), chips produced by allowing preliminarily biotinylated antigen peptides to interact with and immobilize onto a Series S Sensor Chip SA (certified) (GE Healthcare), chips produced by immobilizing Protein L (ACTIGEN, BioVision) to Series S Sencor Chip CM5 (GE Healthcare), or chips produced by immobilizing Protein A/G (Thermo Scientific) to Series S Sencor Chip CM5 (GE Healthcare) were used. Antibodies of interest were captured onto these chips, and allowed to interact to each FcγR diluted with running buffer.

[2] = target: T2, FcgRIIIa V (FcγRIIIa type V) extracellular domain with C-terminal His tag (human, UniProt P08637 17-208)
T2 construct: extracellular domain; also called FcγRIIIa V; not shown: His tag attached to the C terminus
T2 sequence (P08637 17-208 F176V limits assumed): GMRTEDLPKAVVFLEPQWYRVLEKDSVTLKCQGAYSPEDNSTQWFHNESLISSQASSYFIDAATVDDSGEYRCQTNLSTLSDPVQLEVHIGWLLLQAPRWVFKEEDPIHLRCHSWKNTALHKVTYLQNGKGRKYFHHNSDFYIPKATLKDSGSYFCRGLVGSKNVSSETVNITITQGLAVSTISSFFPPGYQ
Experimental: as §1, §2

[3] = target: T3, FcgRIIIa F (FcγRIIIa type F) extracellular domain with C-terminal His tag (human, UniProt P08637 17-208)
T3 construct: extracellular domain; also called FcγRIIIa F; 3aF; not shown: His tag attached to the C terminus
T3 sequence (P08637 17-208): as the sequence (P08637 17-208 F176V limits assumed) above, with V160F counted along it
Experimental: as §1, §2

| relative KD [1] | relative KD [2] | relative KD [3] | Binder |
| --- | --- | --- | --- |
| 0.8 ratio | 1.2 ratio | 0.8 ratio | H240-Kn061/H240-Hl071/L73-k0 variant with W236Y in H240-Kn061 (antibody, human IgG1, kappa, anti-epiregulin heterodimerized IgG1; also called H240-Kn061 W236Y) heavy 1: QDQLVQSGAEVKKPGASVKVSCKASGFNIKDTYIQWVRQAPGQGLEWMGRIDPLRKQTKYREKFEGRVTITADTSTNTAYMELSSLRSEDTAVYYCVRSGREFDYWGQGTLVTVSSASTKGPSVFPLAPSSKSTSGGTAALGCLVKDYFPEPVTVSWNSGALTSGVHTFPAVLQSSGLYSLSSVVTVPSSSLGTQTYICNVNHKPSNTKVDKKVEPKSCDKTHTCPPCPAPEYYYGPSVFLFPPKPKDTLMISRTPEVTCVVVDVSDEDPEVKFNWYVDGVEVHNAKTKPREEQYNATYRVVSVLTVLHQDWLNGKEYKCKVSNKALPAPIEKTISKAKGQPREPQVCTLPPSRDELTKNQVSLWCLVKGFYPSDIAVEWESNGQPENNYKTTPPVLDSDGSFFLYSKLTVDKSRWQQGNVFSCSVMHEALHNHYTQKSLSLSP heavy 2: QDQLVQSGAEVKKPGASVKVSCKASGFNIKDTYIQWVRQAPGQGLEWMGRIDPLRKQTKYREKFEGRVTITADTSTNTAYMELSSLRSEDTAVYYCVRSGREFDYWGQGTLVTVSSASTKGPSVFPLAPSSKSTSGGTAALGCLVKDYFPEPVTVSWNSGALTSGVHTFPAVLQSSGLYSLSSVVTVPSSSLGTQTYICNVNHKPSNTKVDKKVEPKSCDKTHTCPPCPAPELLGGPSVFLFPPKPKDTLMISRTPEVTCVVVDVSHEDPEVKFNWYVDGVEVHNAKTKPREEQYNSTYRVVSVLTVLHQDWLNGKEYKCKVSNDALPMPIEETISKAKGQPREPQVYTLPPSRCELTKNQVSLSCAVKGFYPSDIAVEWESNGQPENNYKTTPPVLDSDGSFFLVSKLTVDKSRWQQGNVFSCSVMHEALHNHYTQKSLSLSP light: DIQMTQSPSSLSASVGDRVTITCRASQDIHKYIAWYQQKPGQAPRLLIQYTSTLQPGVPSRFSGSGSGTDYTFTISSLQPEDIATYYCLQYEQLRTFGGGTKVEIKRTVAAPSVFIFPPSDEQLKSGTASVVCLLNNFYPREAKVQWKVDNALQSGNSQESVTEQDSKDSTYSLSSTLTLSKADYEKHKVYACEVTHQGLSSPVTKSFNRGEC |
| 1.2 ratio | 0.9 ratio | 0.8 ratio | H240-Kn061/H240-Hl071/L73-k0 variant with Y234A in H240-Kn061 (antibody, human IgG1, kappa, anti-epiregulin heterodimerized IgG1; also called H240-Kn061 Y234A) heavy 1: QDQLVQSGAEVKKPGASVKVSCKASGFNIKDTYIQWVRQAPGQGLEWMGRIDPLRKQTKYREKFEGRVTITADTSTNTAYMELSSLRSEDTAVYYCVRSGREFDYWGQGTLVTVSSASTKGPSVFPLAPSSKSTSGGTAALGCLVKDYFPEPVTVSWNSGALTSGVHTFPAVLQSSGLYSLSSVVTVPSSSLGTQTYICNVNHKPSNTKVDKKVEPKSCDKTHTCPPCPAPEAYWGPSVFLFPPKPKDTLMISRTPEVTCVVVDVSDEDPEVKFNWYVDGVEVHNAKTKPREEQYNATYRVVSVLTVLHQDWLNGKEYKCKVSNKALPAPIEKTISKAKGQPREPQVCTLPPSRDELTKNQVSLWCLVKGFYPSDIAVEWESNGQPENNYKTTPPVLDSDGSFFLYSKLTVDKSRWQQGNVFSCSVMHEALHNHYTQKSLSLSP heavy 2: QDQLVQSGAEVKKPGASVKVSCKASGFNIKDTYIQWVRQAPGQGLEWMGRIDPLRKQTKYREKFEGRVTITADTSTNTAYMELSSLRSEDTAVYYCVRSGREFDYWGQGTLVTVSSASTKGPSVFPLAPSSKSTSGGTAALGCLVKDYFPEPVTVSWNSGALTSGVHTFPAVLQSSGLYSLSSVVTVPSSSLGTQTYICNVNHKPSNTKVDKKVEPKSCDKTHTCPPCPAPELLGGPSVFLFPPKPKDTLMISRTPEVTCVVVDVSHEDPEVKFNWYVDGVEVHNAKTKPREEQYNSTYRVVSVLTVLHQDWLNGKEYKCKVSNDALPMPIEETISKAKGQPREPQVYTLPPSRCELTKNQVSLSCAVKGFYPSDIAVEWESNGQPENNYKTTPPVLDSDGSFFLVSKLTVDKSRWQQGNVFSCSVMHEALHNHYTQKSLSLSP light: DIQMTQSPSSLSASVGDRVTITCRASQDIHKYIAWYQQKPGQAPRLLIQYTSTLQPGVPSRFSGSGSGTDYTFTISSLQPEDIATYYCLQYEQLRTFGGGTKVEIKRTVAAPSVFIFPPSDEQLKSGTASVVCLLNNFYPREAKVQWKVDNALQSGNSQESVTEQDSKDSTYSLSSTLTLSKADYEKHKVYACEVTHQGLSSPVTKSFNRGEC |
| 0.9 ratio | 0.9 ratio | 0.8 ratio | H240-Kn061/H240-Hl071/L73-k0 variant with Y234G in H240-Kn061 (antibody, human IgG1, kappa, anti-epiregulin heterodimerized IgG1; also called H240-Kn061 Y234G) heavy 1: QDQLVQSGAEVKKPGASVKVSCKASGFNIKDTYIQWVRQAPGQGLEWMGRIDPLRKQTKYREKFEGRVTITADTSTNTAYMELSSLRSEDTAVYYCVRSGREFDYWGQGTLVTVSSASTKGPSVFPLAPSSKSTSGGTAALGCLVKDYFPEPVTVSWNSGALTSGVHTFPAVLQSSGLYSLSSVVTVPSSSLGTQTYICNVNHKPSNTKVDKKVEPKSCDKTHTCPPCPAPEGYWGPSVFLFPPKPKDTLMISRTPEVTCVVVDVSDEDPEVKFNWYVDGVEVHNAKTKPREEQYNATYRVVSVLTVLHQDWLNGKEYKCKVSNKALPAPIEKTISKAKGQPREPQVCTLPPSRDELTKNQVSLWCLVKGFYPSDIAVEWESNGQPENNYKTTPPVLDSDGSFFLYSKLTVDKSRWQQGNVFSCSVMHEALHNHYTQKSLSLSP heavy 2: QDQLVQSGAEVKKPGASVKVSCKASGFNIKDTYIQWVRQAPGQGLEWMGRIDPLRKQTKYREKFEGRVTITADTSTNTAYMELSSLRSEDTAVYYCVRSGREFDYWGQGTLVTVSSASTKGPSVFPLAPSSKSTSGGTAALGCLVKDYFPEPVTVSWNSGALTSGVHTFPAVLQSSGLYSLSSVVTVPSSSLGTQTYICNVNHKPSNTKVDKKVEPKSCDKTHTCPPCPAPELLGGPSVFLFPPKPKDTLMISRTPEVTCVVVDVSHEDPEVKFNWYVDGVEVHNAKTKPREEQYNSTYRVVSVLTVLHQDWLNGKEYKCKVSNDALPMPIEETISKAKGQPREPQVYTLPPSRCELTKNQVSLSCAVKGFYPSDIAVEWESNGQPENNYKTTPPVLDSDGSFFLVSKLTVDKSRWQQGNVFSCSVMHEALHNHYTQKSLSLSP light: DIQMTQSPSSLSASVGDRVTITCRASQDIHKYIAWYQQKPGQAPRLLIQYTSTLQPGVPSRFSGSGSGTDYTFTISSLQPEDIATYYCLQYEQLRTFGGGTKVEIKRTVAAPSVFIFPPSDEQLKSGTASVVCLLNNFYPREAKVQWKVDNALQSGNSQESVTEQDSKDSTYSLSSTLTLSKADYEKHKVYACEVTHQGLSSPVTKSFNRGEC |
| 1.3 ratio | 0.9 ratio | 0.8 ratio | H240-Kn061/H240-Hl071/L73-k0 variant with Y234H in H240-Kn061 (antibody, human IgG1, kappa, anti-epiregulin heterodimerized IgG1; also called H240-Kn061 Y234H) heavy 1: QDQLVQSGAEVKKPGASVKVSCKASGFNIKDTYIQWVRQAPGQGLEWMGRIDPLRKQTKYREKFEGRVTITADTSTNTAYMELSSLRSEDTAVYYCVRSGREFDYWGQGTLVTVSSASTKGPSVFPLAPSSKSTSGGTAALGCLVKDYFPEPVTVSWNSGALTSGVHTFPAVLQSSGLYSLSSVVTVPSSSLGTQTYICNVNHKPSNTKVDKKVEPKSCDKTHTCPPCPAPEHYWGPSVFLFPPKPKDTLMISRTPEVTCVVVDVSDEDPEVKFNWYVDGVEVHNAKTKPREEQYNATYRVVSVLTVLHQDWLNGKEYKCKVSNKALPAPIEKTISKAKGQPREPQVCTLPPSRDELTKNQVSLWCLVKGFYPSDIAVEWESNGQPENNYKTTPPVLDSDGSFFLYSKLTVDKSRWQQGNVFSCSVMHEALHNHYTQKSLSLSP heavy 2: QDQLVQSGAEVKKPGASVKVSCKASGFNIKDTYIQWVRQAPGQGLEWMGRIDPLRKQTKYREKFEGRVTITADTSTNTAYMELSSLRSEDTAVYYCVRSGREFDYWGQGTLVTVSSASTKGPSVFPLAPSSKSTSGGTAALGCLVKDYFPEPVTVSWNSGALTSGVHTFPAVLQSSGLYSLSSVVTVPSSSLGTQTYICNVNHKPSNTKVDKKVEPKSCDKTHTCPPCPAPELLGGPSVFLFPPKPKDTLMISRTPEVTCVVVDVSHEDPEVKFNWYVDGVEVHNAKTKPREEQYNSTYRVVSVLTVLHQDWLNGKEYKCKVSNDALPMPIEETISKAKGQPREPQVYTLPPSRCELTKNQVSLSCAVKGFYPSDIAVEWESNGQPENNYKTTPPVLDSDGSFFLVSKLTVDKSRWQQGNVFSCSVMHEALHNHYTQKSLSLSP light: DIQMTQSPSSLSASVGDRVTITCRASQDIHKYIAWYQQKPGQAPRLLIQYTSTLQPGVPSRFSGSGSGTDYTFTISSLQPEDIATYYCLQYEQLRTFGGGTKVEIKRTVAAPSVFIFPPSDEQLKSGTASVVCLLNNFYPREAKVQWKVDNALQSGNSQESVTEQDSKDSTYSLSSTLTLSKADYEKHKVYACEVTHQGLSSPVTKSFNRGEC |
